Patent publication US20120304318A1, “CANCER DIAGNOSIS AND TREATMENT” (CAMBRIDGE ENTERPRISE LTD, priority 2009, published 2012)

B1: OMD: human osteomodulin protein (SEQ ID NO:1), stably overexpressed in cells from an expression plasmid (protein, listed as Homo sapiens)
chain: MGFLSPIYVIFFFFGVKVHCQYETYQWDEDYDQEPDDDYQTGFPFRQNVDYGVPFHQYTLGCVSECFCPTNFPSSMYCDNRKLKTIPNIPMHIQQLYLQFNEIEAVTANSFINATHLKEINLSHNKIKSQKIDYGVFAKLPNLLQLHLEHNNLEEFPFPLPKSLERLLLGYNEISKLQTNAMDGLVNLTMLDLCYNYLHDSLLKDKIFAKMEKLMQLNLCSNRLESMPPGLPSSLMYLSLENNSISSIPEKYFDKLPKLHTLRMSHNKLQDIPYNIFNLPNIVELSVGHNKLKQAFYIPRNLEHLYLQNNEIEKMNLTVMCPSIDPLHYHHLTYIRVDQNKLKEPISSYIFFCFPHIHTIYYGEQRSTNGQTIQLKTQVFRRFPDDDDESEDHDDPDNAHESPEQEGAEGHFDLHYYENQE
B2: PRELP: human PRELP protein (SEQ ID NO:2), stably overexpressed in cells (myc tagged in EJ28) (protein)
chain: QPTRRPRPGTGPGRRPRPRPRPTPSFPQPDEPAEPTDLPPPLPPGPPSIFPDCPRECYCPPDFPSALYCDSRNLRKVPVIPPRIHYLYLQNNFITELPVESFQNATGLRWINLDNNRIRKIDQRVLEKLPGLVFLYMEKNQLEEVPSALPRNLEQLRLSQNHISRIPPGVFSKLENLLLLDLQHNRLSDGVFKPDTFHGLKNLMQLNLAHNILRKMPPRVPTAIHQLYLDSNKIETIPNGYFKSFPNLAFIRLNYNKLTDRGLPKNSFNISNLLVLHLSHNRISSVPAINNRLEHLYLNNNSIEKINGTQICPNDLVAFHDFSSDLENVPHLRYLRLDGNYLKPPIPLDLMMCFRLLQSVVI
B3: OMD-myc tag: OMD with myc tag in pIRES2-EGFP vector, stably transfected into EJ28 cells (protein, UniProt Q99983 21-421, looked up)
Osteomodulin: QYETYQWDEDYDQEPDDDYQTGFPFRQNVDYGVPFHQYTLGCVSECFCPTNFPSSMYCDNRKLKTIPNIPMHIQQLYLQFNEIEAVTANSFINATHLKEINLSHNKIKSQKIDYGVFAKLPNLLQLHLEHNNLEEFPFPLPKSLERLLLGYNEISKLQTNAMDGLVNLTMLDLCYNYLHDSLLKDKIFAKMEKLMQLNLCSNRLESMPPGLPSSLMYLSLENNSISSIPEKYFDKLPKLHTLRMSHNKLQDIPYNIFNLPNIVELSVGHNKLKQAFYIPRNLEHLYLQNNEIEKMNLTVMCPSIDPLHYHHLTYIRVDQNKLKEPISSYIFFCFPHIHTIYYGEQRSTNGQTIQLKTQVFRRFPDDDDESEDHDDPDNAHESPEQEGAEGHFDLHYYENQE
modifications: myc tag
notes: OMD with myc tag in pIRES2-EGFP vector, stably transfected into EJ28 cells

Key:
EJ28 cells [1] = assay: Apoptosis of stably transfected EJ28 cells with or without Mitomycin C (caspase activity); format: cell-based; conditions: for endogenous apoptosis: stable overexpression in EJ28, no drug; for apoptosis induced by Mitomycin C: stable overexpression in EJ28, 1 μg/ml Mitomycin C, caspase activity
Procedure: Two control EJ28 cells, two OMD stably-transfected EJ28 cells, and a PRELP stably-transfected EJ28 cells are treated with 1 μg/ml of Mitomycin C. Also, as a positive control, EJ28 cells are treated with higher concentration 5 μg/ml of Mitomycin C as a positive control. Then, the ratios of apoptotic cells were determined by measuring caspase activities.
(§1) OMD and PRELP were subcloned into pIRES2-EGFP (Clontech). A bladder cancer cell line, EJ28, was stably transfected with these plasmids by selection with G418. Two independent clones were derived for each plasmid (except MT-Prelp, where it was only possible to derive one). Then, the properties of these cells were examined. […] These cells include apoptotic ones. This contrasted with control cells, which were flat and cuboidal. […] Two independent clones of OMD and EGFP expressing EJ28 cells, two independent control EJ28 clones expressing EGFP, and a PRELP with myc tag and EGFP expressing EJ28 cells were treated with 1 μg/ml Mitomycin C. Also, EGFP expressing EJ28 cells were treated with higher concentration of Mitomycin C (5 μg/ml) as a positive control.

[2] = test system: EJ28 bladder cancer cell line; assay: Proliferation and cell cycle of stably transfected EJ28 cells (cell counting, BrdU incorporation, FACS); format: cell-based
Description: Also disclosed herein are novel methods for treatment of cancer based on activation of OMD and/or PRELP. […] If so, it can be inferred that the activation of OMD or/and PRELP would inhibit tumourigenesis and provide novel treatment of cancer. […] To this end, OMD or PRELP was stably over-expressed in the bladder cancer cell line EJ28.
as §1

EJ28 cells [3] = assay: Anchorage-independent growth in soft agar; format: cell-based; conditions: stable overexpression in EJ28; 2 weeks; relative to control cells
Procedure: FIG. 14. OMD abolishes, and PRELP inhibits, anchorage-independent growth of EJ28 cells. Cells were seeded in DMEM+0.3% agar, overlying a lower layer of DMEM+0.6% agar. 3000 cells were seeded into wells of a 6-well dish in triplicate. Plates were incubated for 2 weeks, and colonies were counted. Error bars are standard deviations. Statistical analysis consisted of one-way ANOVA, with post-hoc Newman-Keuls testing. Letter groupings, “a”, “b” etc, refer to the results of the Newman-Keuls test.
OMD and PRELP also affect the anchorage-independence, a hallmark of cancer cells. Anchorage-independence was measured by seeding cells in soft agar, incubating them for 2 weeks and counting the number of resultant colonies.

HEK 293 cells = assay: Mitomycin C induced apoptosis in normal cells (annexin and caspase activity assays); format: cell-based; conditions: stable overexpression in HEK 293; 1 ug/ml mitomycin C, 24 h
Procedure: FIG. 10. OMD expression protects normal cells from apoptosis, whilst PRELP expression has no effect. HEK 293 cells stably transfected with either CAT (a control), OMD or PRELP, and assayed to measure the level of apoptosis they underwent in response to treatment with 1 ug/ml mitomycin C. (a) Annexin assay. Cells were treated one dose of the drug, and 24 hours later, they were trypsinized, incubated in the presence of Alexafluor-647 conjugated annexin and propidium iodide, and examined by flow cytometry. The annexin-positive, PI-negative subpopulation, comprising live cells that were in the process of undergoing apoptosis, was identified. (b) Caspase activity assay. One dose of the drug was administered, and 24 h later, cells were incubated in the presence of a substrate that, upon cleavage by caspases, was converted into a luminescent product. Luminescence was quantified and taken to be proportional to caspase activity. In both (a) and (b), error bars refer to standard deviations, and statistical analysis consisted of t-tests.

[4] = test system: EJ28 bladder cancer cells; assay: EJ28 xenograft in nude mice, tumour volume; format: in vivo, MF1 nude mice; conditions: day 18
Procedure: To evaluate in vivo effect of OMD or PRELP activation in cancer cells, xenograft experiments were performed using nude mice. EJ28 bladder cancer cells expressing OMD or EJ28 control cells were injected into the mice and cancer development was monitored for three weeks. […] This observation confirms the utility of OMD/PRELP based cancer treatment.
FIG. 15 Effect of xenograft of EJ28 cells overexpressing OMD protein. EJ28 bladder cancer cells or EJ28 cells overexpressing OMD were inoculated into nude mice and then cancer development was monitored for three weeks. The result at 18 days is shown.
Six- to eight-week-old male MF1 nude mice were obtained from Royal Free Hospital London UK. Tumors were induced by inoculation of 5×10^6 EJ28 cancer bladder cells s.c. on the back. EJ28 tumour-bearing MF-1 mice (n=5) were injected with cells subcloned with stably transfected with OMD-myc tag in pIRES2-EGFP vector, using Lipofectamine 2000 (Invitrogen). […] Tumour dimensions were measured continuously using a caliper and tumour volumes were calculated using the equation: volume=(π/6)×a×b×c, where a, b, and c represent three orthogonal axes of the tumour. Animals were assessed for tumour growth over 25-day period.
The biological activity of OMD on EJ28 tumour-bearing mice was determined by measuring changes in tumour volume.

[5] = stable overexpression in EJ28 vs control cells

Molecule | cell death (EJ28 cells [1]; EGFP expressing EJ28 cells, 5 μg/ml Mitomycin C, positive control) | cell cycle arrest / inhibition ([2]; stable overexpression in EJ28) | proportion of cells in S-phase (FACS analysis) ([2]; stable overexpression in EJ28) | BrdU incorporation [2, 5] | proliferation (cell-counting assay) [2, 5] | anchorage-independent growth / colony-forming ability in soft agar (EJ28 cells [3]) | endogenous apoptosis (EJ28 cells [1]) | apoptosis induced by Mitomycin C (EJ28 cells [1]) | Mitomycin-C mediated apoptosis of normal cells (HEK 293 cells) | tumour size ([4]; EJ28 cells stably transfected with OMD-myc tag inoculated s.c. in MF-1 nude mice, control 37.91±16.57) [mm^3] | tumour growth ([4]; OMD-myc tag transfected EJ28 cell line vs vector control)
CO[C@@]12[C@H](COC(N)=O)C3=C(C(=O)C(C)=C(N)C3=O)N1C[C@@H]1N[C@@H]12 [Mitomycin C, reference compound] | massive cell death | – | – | – | – | – | – | – | – | – | –
B1 | – | enhanced cell cycle arrest at G1 phase | lower proportion of cells in S-phase | lower rate of BrdU incorporation | proliferated more slowly than control cells | absolutely abolished | increased cell death by apoptosis | markedly sensitized | protected normal cells | – | –
B2 | – | cell cycle inhibition was not observed | – | – | inhibit proliferation | a third | higher rates of endogenous apoptosis | even higher rates of apoptosis | had no effect | – | –
B3 | – | – | – | – | – | – | – | – | – | 1.60±1.0 | completely inhibited
